Series [1] deals with T1, Human Serum Albumin (human, UniProt P02768 25-609).
T1 construct: also called HSA; antigen
The experiment in a line: see Table 2.

Series [2] deals with the molecule itself. The experiment in a line: analytical ultracentrifugation (sedimentation equilibrium), self-association.
Procedure: In the present examples, three 6-channel equilibrium cells were loaded with 9 protein solutions made by diluting the stock sample 10-, 20-, 30-, 150-, 200-, 300-, 400-, 500, and 600-fold (a range from 540 to 90 μg/ml). Each sample channel was loaded with 120 μl of protein solution and the reference channels were loaded with 125 μl of Dulbecco's phosphate-buffered saline (DPBS) dilution buffer. These cells were then loaded into an AN90-TI rotor and placed into a Beckman Coulter ProteomeLab XL-1 analytical centrifuge equipped with both absorbance and Rayleigh interference (refractive index detection) optical systems. Absorbance scans for the three highest concentrations were recorded at 280 nm; for the lowest concentrations 230 nm was used. The temperature was set at 25° C.
Series [3] addresses T1, Human Serum Albumin. Description: BIAcore, purified protein over HSA (559 RU).
Series [4] concerns the target Protein L (Peptostreptococcus magnus). The experiment in a line: BIAcore 3000, over Protein L (~500-700 RU). In general terms: SPR reads the build-up and loss of mass on a sensor chip optically.
Series [5] has the same target. The experiment in a line: BIAcore 3000, over Protein L; statistic over the plates analysed.
Series [6] deals with T1, Human Serum Albumin. The experiment in a line: SPR (Biacore 2000), purified dAb over HSA (559 RU) on CM5 chip; Table 13 cell, backed by its kon and koff.
Source text: (§1) The data analysis followed routine and established algorithms using the instrument's software (Bia-evaluation 3.2 RC1).
The target of series [7] is T1, Human Serum Albumin. Description: SPR (Biacore 2000), purified dAb over HSA (559 RU) on CM5 chip.
Source text: as §1
Series [8] addresses T1, Human Serum Albumin. The series is described as above. The source holds these as a separate data set.
Source text: as §1
The target of series [9] is T1, Human Serum Albumin. The experiment in a line: BIAcore, supernatant over immobilised HSA (6036 RU).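 Note: expressed culture supernatants of mutant clones diluted 1:1 in HBS-EP buffer and screened for binding.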
Procedure: Screening of expressed supernatants for Protein L and HSA binding: Mutant clones were picked into a 96 well plate format and expressed in 1 mL 2×TY 0.1 mg/ml carbenicillin supplemented with OnEx solutions 1, 2 and 3 according to the manufacturer's instructions (Novagen). Cultures were grown at 30° C. for 3 days at 950 rpm high humidity in an InforsHT shaker. Cells were pelleted by centrifugation (4.5 k in a bench top Sorvall centrifuge for 30 mins) and 75 μL of the supernatant added to an equal volume of HBS-EP buffer (GE Healthcare).

T1 sequence (P02768 25-609 limits assumed): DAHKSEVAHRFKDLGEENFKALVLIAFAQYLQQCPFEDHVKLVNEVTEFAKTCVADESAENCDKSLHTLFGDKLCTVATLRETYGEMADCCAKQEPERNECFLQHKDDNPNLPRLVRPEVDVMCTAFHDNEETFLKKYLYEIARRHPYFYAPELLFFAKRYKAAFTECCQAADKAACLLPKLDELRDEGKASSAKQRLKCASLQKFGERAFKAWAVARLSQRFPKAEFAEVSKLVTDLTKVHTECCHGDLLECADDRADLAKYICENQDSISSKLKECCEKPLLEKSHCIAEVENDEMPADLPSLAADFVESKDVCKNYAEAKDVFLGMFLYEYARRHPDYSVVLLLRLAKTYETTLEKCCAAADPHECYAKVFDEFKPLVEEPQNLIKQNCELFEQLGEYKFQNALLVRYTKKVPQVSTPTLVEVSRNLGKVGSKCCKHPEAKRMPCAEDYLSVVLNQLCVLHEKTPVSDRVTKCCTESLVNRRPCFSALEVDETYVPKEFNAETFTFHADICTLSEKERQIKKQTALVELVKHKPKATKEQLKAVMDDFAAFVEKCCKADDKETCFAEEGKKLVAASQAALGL

B1: DOM7h-8 (other)
VL: DIQMTQSPSSLSASVGDRVTITCRASQSISSYLNWYQQKPGKAPKLLIYRNSPLQSGVPSRFSGSGSGTDFTLTISSLQPEDFATYYCQQTYRVPPTFGQGTKVEIKR
notes: also called DOM7h-8 parent molecule; SD ctrl
Take B1: in [1], the binding result was “binds”. The same molecule had a Kd in [2] of 120 nM.

B2: DOM7h-8 L46D (other)
VL: DIQMTQSPSSLSASVGDRVTITCRASQSISSYLNWYQQKPGKAPKDLIYRNSPLQSGVPSRFSGSGSGTDFTLTISSLQPEDFATYYCQQTYRVPPTFGQGTKVEIKR
B2: the binding result in series [3] is “binds”.

B3: DOM7h-8 Y87L (other)
VL: DIQMTQSPSSLSASVGDRVTITCRASQSISSYLNWYQQKPGKAPKLLIYRNSPLQSGVPSRFSGSGSGTDFTLTISSLQPEDFATYLCQQTYRVPPTFGQGTKVEIKR
Consider B3, for which, in [3], the binding result was “binds”.

B4: DOM4-130-54 (protein)
VL: DIQMTQSPSSLSASVGDRVTITCRASQDIYLNLDWYQQKPGKAPKLLINFGSELQSGVPSRFSGSGYGTDFTLTISSLQPEDFATYYCQPSFYFPYTFGQGTKVEIKRA
Molecule B4 gave a % B5 (proportion of dAb bound at 5 min of dissociation) in series [4] of 4%. In series [5], this molecule showed a % B5, 25% Percentile of 3.9%; a % B5, 75% Percentile of 4%; a % B5, Maximum of 4%; a % B5, Mean of 3.9%. In series [5], this molecule showed a % B5, Median of 4% and a % B5, Minimum of 3.6%.

B5: DOM7h-11-15 (other)
VL: DIQMTQSPSSLSASVGDRVTITCRASRPIGTMLSWYQQKPGKAPKLLILAFSRLQSGVPSRFSGSGSGTDFTLTISSLQPEDFATYYCAQAGTHPTTFGQGTKVEIKR
notes: also called DOM7h-11-15 parent
For the molecule B5, the dissociation constant (Kd) in series [6] is 384 nM. Also, in [7], the koff is 0.0045 s⁻¹ and the on-rate constant (kon) was 12000 M⁻¹ s⁻¹.

B6: DOM7h-11-15 A43D (other, name in Kabat numbering)
VL: DIQMTQSPSSLSASVGDRVTITCRASRPIGTMLSWYQQKPGKDPKLLILAFSRLQSGVPSRFSGSGSGTDFTLTISSLQPEDFATYYCAQAGTHPTTFGQGTKVEIKR
notes: also called A43D mutant of DOM7h-11-15
In series [7], B6 registered a dissociation constant Kd of 7000 nM, a koff of 0.0047 s⁻¹ and a kon of 664 M⁻¹ s⁻¹.

B7: DOM7h-11-15 A43I (other, name in Kabat numbering)
VL: DIQMTQSPSSLSASVGDRVTITCRASRPIGTMLSWYQQKPGKIPKLLILAFSRLQSGVPSRFSGSGSGTDFTLTISSLQPEDFATYYCAQAGTHPTTFGQGTKVEIKR
notes: also called DOM7h-11-15 A43I mutant
Consider B7, for which the “fold improvement in antigen affinity over the DOM7h-11-15 parent” value in [8] was 1000 fold. Also, in [7], the Kd came to 6.4 nM, the koff was determined as 0.0049 s⁻¹ and the on-rate (kon) is 770000 M⁻¹ s⁻¹.

B8: DOM7h-14 (other)
VL: DIQMTQSPSSLSASVGDRVTITCRASQWIGSQLSWYQQKPGKAPKLLIMWRSSLQSGVPSRFSGSGSGTDFTLTISSLQPEDFATYYCAQGAALPRTFGQGTKVEIKR
notes: also called 7h14 wt
Take B8: in [2], the Kd was found to be 250000 nM. The binding result in series [9] is on record as “binds”.

B9: DOM7h-14-10 A43I (other, name in Kabat numbering)
VL: DIQMTQSPSSLSASVGDRVTITCRASQWIGSQLSWYQQKPGKIPKLLIMWRSSLQSGVPSRFSGSGSGTDFTLTISSLQPEDFATYYCAQGLRHPKTFGQGTKVEIKR
notes: also called A43I mutant of DOM7h-14-10
In the case of B9, in series [8], the “fold improvement in antigen affinity over DOM7h-14-10” value stood at 2 fold. In [7], this molecule came in with a Kd of 13.1 nM, a koff of 0.012 s⁻¹ and a kon of 890000 M⁻¹ s⁻¹.

B10: DOM7h-14-10 A43D (other, name in Kabat numbering)
VL: DIQMTQSPSSLSASVGDRVTITCRASQWIGSQLSWYQQKPGKDPKLLIMWRSSLQSGVPSRFSGSGSGTDFTLTISSLQPEDFATYYCAQGLRHPKTFGQGTKVEIKR
notes: also called A43D mutant of DOM7h-14-10
For the molecule B10, in series [8], the “fold improvement in antigen affinity over DOM7h-14-10” value amounted to 2 fold. In series [7], the Kd was determined as 11.7 nM, the koff was found to be 0.012 s⁻¹ and the kon turned out to be 990000 M⁻¹ s⁻¹.

By Kd is commonly meant the free concentration of one partner at which half of the binding sites on the other are occupied at equilibrium, for simple one-to-one binding. As usually defined, the koff is a measure of how fast the partners let go of each other. Higher therefore signals fast dissociation. Usually kon stands for the second-order rate constant of association. A low value points to slow association.

These data come from patent US20130045895A1 (published 2013).
